Laboratory results: paper doi:10.1101/2021.12.10.472131 (bioRxiv, 2021)

Biological target: T1, Par-3 PDZ1-APM (residues 309-987) (UniProt O96782 309-987)
T1 sequence (looked up): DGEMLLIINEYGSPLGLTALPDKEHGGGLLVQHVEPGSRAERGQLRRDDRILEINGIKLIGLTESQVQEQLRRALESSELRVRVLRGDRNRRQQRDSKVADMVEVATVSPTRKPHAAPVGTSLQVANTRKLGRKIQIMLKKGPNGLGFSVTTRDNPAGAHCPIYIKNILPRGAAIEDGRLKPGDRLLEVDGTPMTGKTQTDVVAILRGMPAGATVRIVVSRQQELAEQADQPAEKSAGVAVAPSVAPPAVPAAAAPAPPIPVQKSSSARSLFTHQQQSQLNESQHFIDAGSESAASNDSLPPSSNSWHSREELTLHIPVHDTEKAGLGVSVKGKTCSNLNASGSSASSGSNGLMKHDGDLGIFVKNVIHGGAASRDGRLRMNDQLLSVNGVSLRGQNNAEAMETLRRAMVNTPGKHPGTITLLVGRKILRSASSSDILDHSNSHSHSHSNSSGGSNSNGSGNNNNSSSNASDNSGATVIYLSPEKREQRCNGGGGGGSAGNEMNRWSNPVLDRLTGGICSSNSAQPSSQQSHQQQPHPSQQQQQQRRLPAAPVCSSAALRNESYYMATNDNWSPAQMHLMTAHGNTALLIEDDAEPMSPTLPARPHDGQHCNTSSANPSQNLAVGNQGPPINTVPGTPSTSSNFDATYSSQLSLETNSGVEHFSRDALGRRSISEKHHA
Test: supernatant depletion assay

B1: his aPKC kinase domain-PBM (residues 259-606) (domain or fragment, UniProt A1Z9X0 259-606, looked up)
chain: YSLNDFELIRVIGRGSYAKVLMVELRRTRRIYAMKVIKKALVTDDEDIDWVQTEKHVFETASNHPFLVGLHSCFQTPSRLFFVIEFVRGGDLMYHMQRQRRLPEEHARFYAAEISLALNFLHEKGIIYRDLKLDNVLLDHEGHIKLTDYGMCKEGIRPGDTTSTFCGTPNYIAPEILRGEDYGFSVDWWALGVLLYEMLAGRSPFDLAGASENPDQNTEDYLFQVILEKTIRIPRSLSVRAASVLKGFLNKNPADRLGCHRESAFMDIVSHPFFKNMDWELLERKQVTPPFKPRLDSDRDLANFPPEFTGEAVQLTPDDDHVIDNIDQSEFEGFEYVNPLLMSLEDCV
binding result: binds
